This series in a line: protein stability index of a GFP-peptide fusion (GPS, HEK-293T) (PSI 1-6); higher = more stable. Particulars: c terminus: a fixed tail appended.

± gives the standard deviation.
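Also: 24-mer peptide tiles fused after GFP, lentivirally expressed, FACS-sorted into six equal bins by GFP/DsRed ratio, decoded by Illumina sequencing, PSI is the read-weighted mean bin number.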

Turning to ALSEILRIGKRPDLLTFVQNLCKG [NEUROD6], the protein stability index by setting is: (treatment: DMSO) 2.49 ± 0.46; (treatment: MLN4924 1 uM, 8 h) 2.29 ± 0.21.
Taken in the same sequence, the figures for ALSLIRFPLMTIEEFAAGPAQSGI [BTBD1] were 2.09 ± 0.35 and 2.04 ± 0.13.
Taken in the same sequence, the figures for ALWCSGHLNGHAMCQTKHSPWADG [ADAMTS4] were 2.48 ± 0.38 and 2.27 ± 0.47.
In the case of AMAAAEGSSGPAGLTLGRSFSNYR [SEPHS2], the protein stability index was determined as 3.82 ± 0.16 (treatment: DMSO) and 3.63 ± 0.23 (treatment: MLN4924 1 uM, 8 h).
Sequence AMKSVHENMDLNKIDDLMQEITEQ [CHMP4C] gave a protein stability index (treatment: DMSO) of 4.7 ± 0.16 and a protein stability index (treatment: MLN4924 1 uM, 8 h) of 4.85 ± 0.52.
Taken in the same sequence, the figures for AMPPYGQGPPMVPPYQGGPPRPPM [ZNF207] were 3.79 ± 0.45 and 3.92 ± 0.2.
In the same order, the values of ANYLEKVRQLERENAELESRIQEW [KRT36] are 4.27 ± 0.3 and 4.46 ± 0.16.
In the same order, the values of APAGASYNPSFEDHQTLLSAAHEV [NOP53] are 4.73 ± 0.14 and 4.71 ± 0.14.
As to APFTDEQLYMEQFTKANFWYQPSF [CARM1], the protein stability index came to 2.31 ± 0.42 (treatment: DMSO) and 2.21 ± 0.26 (treatment: MLN4924 1 uM, 8 h).
Consider APHSQGEYDVYSTFQSHEPEFDYL [PPP2R2C], for which the protein stability index is, setting by setting: (treatment: DMSO) 4.22 ± 0.19; (treatment: MLN4924 1 uM, 8 h) 4.13 ± 0.2.
In the same order, the values of APKPDAAPSIDLFSTDAFSSPPQG [SNAP91] are 4.73 ± 0.14 and 4.84 ± 0.14.
Taken in the same sequence, the figures for APLSNGLCCAFSTDGSVLAAGTHD [WSB1] were 4.06 ± 0.43 and 3.9 ± 0.24.
As to APSEGSAEAAPELDLFAMKPPETS [SNAP91], the protein stability index came to 5.39 ± 0.23 (treatment: DMSO) and 5.47 ± 0.19 (treatment: MLN4924 1 uM, 8 h).
APSFSSYLYFLFCPTLIYRETYPR [SOAT2] had a protein stability index (treatment: DMSO) of 2.99 ± 0.17 and a protein stability index (treatment: MLN4924 1 uM, 8 h) of 2.7 ± 0.44.
Taken in the same sequence, the figures for APSIEQRLQEVRESIRRAQVSQVK [FCHSD1] were 4.27 ± 0.39 and 4.35 ± 0.34.
Taken in the same sequence, the figures for AQFHCAYQLADWCLHHICTNYNNV [RHOBTB2] were 3.34 ± 0.36 and 3.15 ± 0.89.
In the case of AQLYEDFLFPIDISLVKREHDFLD [DLC1], the protein stability index runs as follows: (treatment: DMSO) 2.52 ± 0.12; (treatment: MLN4924 1 uM, 8 h) 2.7 ± 0.28.
Taken in the same sequence, the figures for AQTPPRPGPPSAPPPPPKEGHQEG [SCNN1D] were 5.73 ± 0.27 and 5.08 ± 0.72.
For AQYSVTGSAVARAVCKATTHEVMG [SNAP91], the protein stability index reads like this: (treatment: DMSO) 3.34 ± 0.088; (treatment: MLN4924 1 uM, 8 h) 3.23 ± 0.2.
In the same order, the values of ARFQDKQYSSHHTAEKRKRLGELF [CHGB] are 3.58 ± 0.44 and 3.56 ± 0.11.
Taken in the same sequence, the figures for ARGTGSGEDSSTSSSTPLEDEEPQ [RTN2] were 5.7 ± 0.15 and 5.62 ± 0.24.
On to ARMGFNASSMLRKSQLGFLNVTNY [DCAF4], for which the protein stability index was 2.26 ± 0.13 (treatment: DMSO) and 2.24 ± 0.14 (treatment: MLN4924 1 uM, 8 h).
In the same order, the values of ARRKLKGAILTTMLATRNFSGGKS [CAMK2A] are 3.21 ± 0.37 and 3.34 ± 0.47.
Consider ARRYAGPLHHQTQRFRLDNLLNMA [ELAVL3], for which the protein stability index runs as follows: (treatment: DMSO) 2.78 ± 0.35; (treatment: MLN4924 1 uM, 8 h) 2.75 ± 0.31.
As to ARSVGLKWRKVGRSLQRGCRALRD [TRADD], the protein stability index runs as follows: (treatment: DMSO) 2.57 ± 0.32; (treatment: MLN4924 1 uM, 8 h) 2.55 ± 0.46.
In the same order, the values of ARTFGNEARFIRRSCTPNAEVRHE [KMT2E] are 3.2 ± 0.51 and 3.22 ± 0.26.
On to ASLLHLAVEAGQEECAKWLLLNNA [RIPK4], for which the protein stability index was 2.17 ± 0.068 (treatment: DMSO) and 2.74 ± 0.13 (treatment: MLN4924 1 uM, 8 h).
Take ASMSKRRCGVGVSVLDDLLYAVGG [KLHL20]: the protein stability index turned out to be 2.62 ± 0.14 (treatment: DMSO) and 2.13 ± 0.44 (treatment: MLN4924 1 uM, 8 h).
For ASQPRGPALLFPATRGVPAKRLLD [TRIB1], the protein stability index runs as follows: (treatment: DMSO) 3.72 ± 0.62; (treatment: MLN4924 1 uM, 8 h) 3.9 ± 0.36.
In the case of ASSPKGTIENILDNDPRDLIGDFS [CDC25A], the protein stability index amounted to 4.91 ± 0.21 (treatment: DMSO) and 4.82 ± 0.14 (treatment: MLN4924 1 uM, 8 h).
Taken in the same sequence, the figures for ASSWKKQVSHDFLETRFKIQQLLE [FBXO34] were 2.89 ± 0.31 and 2.71 ± 0.41.
For the sequence ASTSLPTKPTQGASSASEPQGLFV [CLPTM1], the protein stability index runs as follows: (treatment: DMSO) 4.42 ± 0.12; (treatment: MLN4924 1 uM, 8 h) 4.29 ± 0.48.
As for ATGMEVGWYRPPFSRVVHLYRNGK [MOG], the protein stability index by setting is: (treatment: DMSO) 3.12 ± 0.36; (treatment: MLN4924 1 uM, 8 h) 2.98 ± 0.14.
With ATNPHVKPPYSYATLICMAMQASK [FOXJ1], the protein stability index came out at 2.29 ± 0.32 (treatment: DMSO) and 2.36 ± 0.064 (treatment: MLN4924 1 uM, 8 h).
ATPIVPVVPPTPPVVKKKGVKRKA [BRD3]: the protein stability index is, setting by setting: (treatment: DMSO) 5.33 ± 0.26; (treatment: MLN4924 1 uM, 8 h) 5.27 ± 0.12.
In the case of AVHSGTPVTNNLLEKCKTLVSQSN [SPACA9], the protein stability index by setting is: (treatment: DMSO) 3.76 ± 0.42; (treatment: MLN4924 1 uM, 8 h) 3.78 ± 0.39.

These data come from the supplement of paper PMC10567573.
